Assay results as given in patent US20160237132A1 (ALKERMES, published 2016).
Each block holds one binder with its values, some of them ahead of it.

Molecular target: IL-6 (UniProt P05231 30-212, limits assumed)
Experiment: cell-based or functional assay

Chain of IL-6 (P05231 30-212 limits assumed): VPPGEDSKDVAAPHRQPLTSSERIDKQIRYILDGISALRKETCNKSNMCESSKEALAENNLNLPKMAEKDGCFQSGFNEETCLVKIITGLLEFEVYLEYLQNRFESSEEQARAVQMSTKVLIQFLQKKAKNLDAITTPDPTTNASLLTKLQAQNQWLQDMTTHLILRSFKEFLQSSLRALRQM

- IC50, inhibition of IL-6-dependent differentiation of M1 cells (percent CD32 positive cells): 0.0026 µM
- fold potency against RDB1542, inhibition of IL-6-dependent differentiation of M1 cells: > 400 fold
B1: RDB1562 (Fc fusion)
chain: QNQWLQDMTTHLILRSFKEFLQSSLRALRQMSGGSGGGSSERIDKQIRYILDGISALRKETCNKSNMCESSKEALAENNLNLPKMAEKDGCFQSGFNEETCLVKIITGLLEFEVYLEYLQNRFESSEEQARAVQMSTKVLIQFLQKKAKNLDAITTPDPTTNASLLTKLQASELLDPCGYISPESPVVQLHSNFTAVCVLKEKCMDYFHVNANYIVWKTNHFTIPKEQYTIINRTASSVTFTDIASLNIQLTCNILTFGQLEQNVYGITIISGGGGGSASSESSASSDGPHPVITESRASSESSASSDGPHPVITESRSERKCCVECPPCPAPPVAGPSVFLFPPKPKDTLMISRTPEVTCVVVDVSHEDPEVQFNWYVDGVEVHNAKTKPREEQFNSTFRVVSVLTVVHQDWLNGKEYKCKVSNKGLPAPIEKTISKTKGQPREPQVYTLPPSREEMTKNQVSLTCLVKGFYPSDISVEWESNGQPENNYKTTPPMLDSDGSFFLYSKLTVDKSRWQQGNVFSCSVMHEALHNHYTQKSLSLSPGK

- IC50, inhibition of IL-6-dependent differentiation of M1 cells (percent CD32 positive cells): > 1000 µM
B2: RDB1542 (Fc fusion)
chain: QNQWLQDMTTHLILRSFKEFLQSSLRALRQMSGGSGGGSSERIDKQIRYILDGISALRKETCNKSNMCESSKEALAENNLNLPKMAEKDGCFQSGFNEETCLVKIITGLLEFEVYLEYLQNRFESSEEQARAVQMSTKVLIQFLQKKAKNLDAITTPDPTTNASLLTKLQASELLDPCGYISPESPVVQLHSNFTAVCVLKEKCMDYFHVNANYIVWKTNHFTIPKEQYTIINRTASSVTFTDIASLNIQLTCNILTFGQLEQNVYGITIISGGSERKCCVECPPCPAPPVAGPSVFLFPPKPKDTLMISRTPEVTCVVVDVSHEDPEVQFNWYVDGVEVHNAKTKPREEQFNSTFRVVSVLTVVHQDWLNGKEYKCKVSNKGLPAPIEKTISKTKGQPREPQVYTLPPSREEMTKNQVSLTCLVKGFYPSDISVEWESNGQPENNYKTTPPMLDSDGSFFLYSKLTVDKSRWQQGNVFSCSVMHEALHNHYTQKSLSLSPGK
